Measured values reported in PMC9582199, “Molecular architecture of the glycogen- committed PP1/PTG holoenzyme” (Nature Communications, 2022).
Like-named read-outs stand apart in the source and are kept apart here.

What was measured:
PP1 (Homo sapiens) [1] = target: PP1 (Homo sapiens) (UniProt P62136); settings: cited from earlier work
PP1 (Homo sapiens) [2] = target: PP1 (Homo sapiens) (UniProt P62136); settings: cited from earlier work; remark: listed apart in the source
GM CBM21 = settings: cited from earlier work
Excerpt: The same two sugar-binding sites have been identified in the crystal structures of Rhizopus oryzae CBM21[13],[14]; site II is the primary binding site, while site I has been hypothesized to contribute to the binding of long-chain soluble polysaccharides and insoluble starch or to the relaxation and unwinding of helical amylose[15],[16].

[3] = target: T1, PP1 7-330 (Serine/threonine-protein phosphatase PP1-alpha catalytic subunit, residues 7-330) (human, UniProt P62136 7-330); assay: grating-coupled interferometry (GCI); PTG 70-264 immobilised by amine coupling on a 4PCH WAVE chip at 1000 pg/mm2; PP1 7-330 injected, 1:2 dilution series from 400 nM; 10 mM Hepes pH 7.2, 150 mM NaCl, 0.005% Tween 20; 25 °C; 30 µl/min; mass transport binding model; settings: both partners purified
T1 construct: Serine/threonine-protein phosphatase PP1-alpha catalytic subunit, human, UniProt P62136, residues 7-330; source: E. coli BL21 (DE3) pGro7, purified (Ni-NTA, SEC)

PP1 7-330 = target: T2, PP1 7-330 (Homo sapiens, UniProt P62136); assay: GCI binding of immobilized PTG constructs to PP1 as analyte; settings: GCI titrations, compared with PTG peptides 81–107 and 81–132
T2 construct: reversibly capturing 6xHis-tagged PP1^7-330; host or cells: E. coli BL21 (DE3) pGro7
Protocol: Grating-coupled interferometry (GCI) experiments were performed using the Creoptix WAVE system, a new generation instrument for the high-sensitivity kinetics and affinity analysis of label-free molecular interactions based on the waveguide interferometry technology. Waveguide interferometry exceeds the sensitivity levels of Surface Plasmon Resonance (SPR). […] GCI allows getting high resolution even at very low signal levels with low noise without artificial data averaging and reliable kinetics below 1 pg/mm^2. By the lower immobilization levels that are required, it avoids mass transport limitations. It covers the broadest kinetic range with the capability of analyzing of the ultra-fast transition times (i.e. 150 ms). It allows the reliable determination of off-rates of 5 s^–1 and even faster, enabling off-rate screening of weakly binding analytes. GCI can be applied to a wide range of pharmacological targets, with improved results on very low molecular weight compounds, to the dimensions of metal ions[56].
WAVE chips are composed of four channels or cells. Borate buffer (100 mM sodium borate pH 9.0, 1 M NaCl) was used for chip conditioning. To evaluate the kinetics of the PTG interaction with β-cyclodextrin and PP1, PTG^70-264 (20 µg/ml in buffer acetate pH 5.0) was immobilized on 4PCH WAVE chips (quasiplanar polycarboxylate surface; Creoptix) by standard amine coupling according to the manufacturer’s instructions at a density of 1800 pg/mm^2 and 1000 pg/mm^2 for β-cyclodextrin and PP1^7-330, respectively (Supplementary Figs. 8, 9). Regeneration-free injections of a 1:3 dilution series from 500 µM for β-cyclodextrin in running buffer (10 mM Hepes pH 7.2, 150 mM NaCl, 0.005% Tween 20) were performed at 25 °C, using a flow rate of 100 μl/min. Similarly, regeneration-free injections of a 1:2 dilution series from 400 nM for PP1^7-330 in the same running buffer were performed at 25 °C, using a flow rate of 30 μl/min. […]
Supplementary Figure 3: Quantitative binding kinetics by GCI. […]

6xHis-tagged PP1 7-330 = target: T3, 6xHis-tagged PP1 7-330 (human, UniProt P62136 7-330); assay: grating-coupled interferometry (GCI); 6xHis-tagged PP1 7-330 captured on 4PCP-NTA WAVE chips (3600 pg/mm2 for PTG 81-107, 1600 pg/mm2 for PTG 81-132); peptides injected, 1:2 dilution series from 300 nM; 10 mM Hepes pH 7.2, 150 mM NaCl, 0.005% Tween 20, 0.2 mg/ml BSA; 25 °C; 100 µl/min; mass transport binding model; settings: both partners purified
T3 construct: Serine/threonine-protein phosphatase PP1-alpha catalytic subunit, human, UniProt P62136, residues 7-330; Captured by its His tag on 4PCP-NTA chips; a TEV site lies between tag and protein; source: E. coli BL21 (DE3) pGro7, purified (Ni-NTA, SEC); not shown: His6, N-terminal, kept

6xHis-tagged PP1^7-330 = 6xHis-tagged PP1^7-330 (UniProt P62136 7-330, Mn2+ in active site (expressed and purified with MnCl2); N-terminal 6xHis tag used for capture, left out. Alpha isoform taken from the authors' PDB entries 7QFB/7QM2 and the residue numbering); assay: grating-coupled interferometry (GCI); 6xHis-tagged PP1 7-330 reversibly captured on 4PCP-NTA WAVE chip (3600 or 1600 pg/mm^2); peptides injected, 1:2 dilution series from 300 nM; 25 °C; 10 mM Hepes pH 7.2, 150 mM NaCl, 0.005% Tween 20, 0.2 mg/ml BSA; mass transport binding model; settings: both partners purified
Sequence of 6xHis-tagged PP1^7-330 (P62136 7-330): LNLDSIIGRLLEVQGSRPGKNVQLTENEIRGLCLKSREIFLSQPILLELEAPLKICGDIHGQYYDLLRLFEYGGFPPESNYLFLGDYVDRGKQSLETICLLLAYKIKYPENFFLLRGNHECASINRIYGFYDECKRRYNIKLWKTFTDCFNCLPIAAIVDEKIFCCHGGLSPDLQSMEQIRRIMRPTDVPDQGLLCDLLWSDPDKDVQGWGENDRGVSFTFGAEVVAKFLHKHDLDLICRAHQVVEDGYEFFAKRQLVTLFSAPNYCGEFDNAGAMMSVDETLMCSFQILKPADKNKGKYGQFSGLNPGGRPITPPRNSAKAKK

T1 sequence (P62136 7-330): as above
T2 sequence (P62136 7-330): as above
T3 sequence (P62136 7-330): as above
Sequence of PP1 (Homo sapiens) (P62136 2-330): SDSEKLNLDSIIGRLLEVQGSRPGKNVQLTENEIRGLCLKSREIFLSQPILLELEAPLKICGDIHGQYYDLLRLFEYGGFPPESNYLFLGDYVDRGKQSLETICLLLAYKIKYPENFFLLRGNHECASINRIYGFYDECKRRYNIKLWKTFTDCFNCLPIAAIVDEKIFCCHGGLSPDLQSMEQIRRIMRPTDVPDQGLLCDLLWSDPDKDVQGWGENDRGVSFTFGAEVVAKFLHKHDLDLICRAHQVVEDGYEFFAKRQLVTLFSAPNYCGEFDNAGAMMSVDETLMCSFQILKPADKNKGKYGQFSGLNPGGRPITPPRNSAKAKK

With GM 64-105 (from UniProt Q00756) as the molecule, how does the Kd (PP1 (Homo sapiens) [1]) read?
Its Kd is 114 nM.

For GM 64-237 (from UniProt Q00756), which Kd (PP1 (Homo sapiens) [2]) is on record?
Its Kd is 21 nM.

For `OC[C@H]1O[C@@H]2O[C@H]3[C@H](O)[C@@H](O)[C@@H](O[C@H]4[C@H](O)[C@@H](O)[C@@H](O[C@H]5[C@H](O)[C@@H](O)[C@@H](O[C@H]6[C@H](O)[C@@H](O)[C@@H](O[C@H]7[C@H](O)[C@@H](O)[C@@H](O[C@H]1[C@H](O)[C@H]2O)O[C@@H]7CO)O[C@@H]6CO)O[C@@H]5CO)O[C@@H]4CO)O[C@@H]3CO` [α-cyclodextrin], which Kd (GM CBM21) is on record?
The Kd was 27600 nM.

B1: PTG 70-264 (Protein phosphatase 1 regulatory subunit 3C, residues 70-264) (domain or fragment, human, UniProt Q9UQK1 70-264, looked up)
chain: SQNDWKCSHNQAKKRVVFADSKGLSLTAIHVFSDLPEEPAWDLQFDLLDLNDISSALKHHEEKNLILDFPQPSTDYLSFRSHFQKNFVCLENCSLQERTVTGTVKVKNVSFEKKVQIRITFDSWKNYTDVDCVYMKNVYGGTDSDTFSFAIDLPPVIPTEQKIEFCISYHANGQVFWDNNDGQNYRIVHVQWKPD
notes: GST removed on the column with 3C protease; also called PPP1R3C; protein targeting to glycogen; source: E. coli, co-expressed with GroEL/ES (pGro7), purified (glutathione agarose, SEC); for the crystal co-expressed with PP1 7-300; not shown: GST, N-terminal, cleaved
For B1, which Kd [3] is on record?
The Kd was 87 nM.

And the koff [3]?
The koff was 0.0043 s⁻¹.

And the kon [3]?
Its kon is 50000 M⁻¹ s⁻¹.

B2: PTG70-264: recombinant human PTG residues 70–264, encompassing the PP1-binding region and the CBM21 (protein)
chain: B1 chain
modifications: left off: GST, N-terminal, cleaved
With B2 as the molecule, how does the “binding to PP1 (in words)” value (PP1 7-330) read?
The value was “did not bind PP1 any better”.

B3: CBM21 aa. 132–264: recombinant PTG carbohydrate-binding module 21, residues 132–264 (protein)
chain: KNLILDFPQPSTDYLSFRSHFQKNFVCLENCSLQERTVTGTVKVKNVSFEKKVQIRITFDSWKNYTDVDCVYMKNVYGGTDSDTFSFAIDLPPVIPTEQKIEFCISYHANGQVFWDNNDGQNYRIVHVQWKPD
modifications: left off: His6, N-terminal, cleaved
Which “binding to PP1 (in words)” value (PP1 7-330) does the source give for B3 here?
Its value is “no interaction was detected”.

What about the “binding to PP1 (in words)” value (PP1 7-330; listed as isolated CBM21) of the same molecule?
The value was “undetectable binding”.

B4: PTG peptide 81-107 (peptide, UniProt Q9UQK1 81-107, looked up)
peptide: AKKRVVFADSKGLSLTAIHVFSDLPEE
notes: also called peptide 1; source: synthetic peptide, bought: ProteoGenix SAS
What does the source list for B4?
Kd (6xHis-tagged PP1 7-330): 14.1 nM; koff (6xHis-tagged PP1 7-330): 0.00295 s⁻¹; kon (6xHis-tagged PP1 7-330): 208000 M⁻¹ s⁻¹

B5: PTG peptide 81-107 (peptide, UniProt Q9UQK1 81-107, looked up)
peptide: AKKRVVFADSKGLSLTAIHVFSDLPEE
notes: also called PTG N-terminal peptide; source: synthetic peptide, bought: ProteoGenix SAS
With B5 as the molecule, how does the Kd (6xHis-tagged PP1^7-330) read?
Its Kd is 14 nM.

B6: PTG peptide 81-132 (peptide, UniProt Q9UQK1 81-132, looked up)
peptide: AKKRVVFADSKGLSLTAIHVFSDLPEEPAWDLQFDLLDLNDISSALKHHEEK
notes: also called peptide 2; source: synthetic peptide, bought: ProteoGenix SAS
Which Kd (6xHis-tagged PP1 7-330) does the source give for B6 here?
The Kd was 7.7 nM.

And the koff (6xHis-tagged PP1 7-330)?
Its koff is 0.0026 s⁻¹.

What about the kon (6xHis-tagged PP1 7-330) of the same molecule?
Its kon is 357000 M⁻¹ s⁻¹.
